These results are taken from patent publication US20060140970A1, “Proteic binding partners of TCTP and methods of modulating tumor reversion or cell apoptosis” (priority 2003, published 2006).

The target in data set [1] is Arf1-GAP / [D17]ARF1 (Homo sapiens, UniProt P84077). As to the kind of experiment: GTP-GDP exchange activity of Arf1-GAP on [D17]ARF1, tryptophan fluorescence. It counts as biochemical. The following applies: 30 uM TCTP, 0.5 uM [D17]ARF1-GDP, 100 uM Arf-GAP; presence vs absence of TCTP. As to the method:
Into a buffer containing 1 mM free Mg^2+, 30 uM TCTP and 0.5 uM [D17]ARF1 -GDP were added. The reaction was initiated by the addition of 40 uM GTP and 2 mM EDTA. To stop the reaction, 2 mM MgCl2 was added. The Arf-GAP, at a concentration of 100 uM, was added. The reaction was measured in presence and absence of TCTP. […] In particular, it is shown that TCTP inhibits the GTP-GDP exchange catalyzed by Arf1-GAP, implicating that Arf1 is kept in its active conformation in presence of TCTP.

The subject of data set [2] is bovine brain tubulin. As to the kind of experiment: In vitro tubulin polymerization assay (absorbance at 340 nm). The following applies: 3 μg purified protein, 2 mg/ml tubulin, 32° C. It counts as biochemical. As for the experimental part: In vitro tubulin polymerization assays. Pure bovine brain tubulin protein was reconstituted at a final concentration of 10 mg/ml in cold G-PEM buffer (80 mM Piperazine-N,N′-bis-[2-ethanesulfonic acid] equisodium salt (PIPES), 0.5 mM magnesium chloride (MgCl2), 1 mM ethylene glycol-bis-(b-amino-ethyl ether)-N,N,N′,N′-tetra-acetic acid (EGTA), 1 mM Guanosine 5′-triphosphate (GTP), pH 6.9). Samples of 2 mg/ml tubulin in G-PEM buffer were incubated either with 3 μg of ovalbumin (negative control), with 3 μg of purified recombinant TCTP protein, or with […] of purified recombinant OP18 protein. Then, the samples were placed in quartz cuvettes and incubated at 32° C. Tubulin polymerization was observed by measuring the absorbance of the solution at 340 nm over time.
Since TCTP exerts tubulin and microtubules binding properties (Gachet et al., J. Cell Sci., 1 12(Pt 8): 1257-1271 (1999)), whether TCTP could directly regulate the microtubule dynamics was investigated. An in vitro tubulin polymerization assay, using purified tubulin, was developed. […] In the presence of 3 μg of purified OP18 from E. Coil, the polymerization of tubulin was abolished.

In data set [3] the target is T1, eEF1A (Oryctolagus cuniculus, UniProt P68105).
T1 construct: Rabbit liver eEF1A was purified as described in Shalak et al; from tissue; host or cells: rabbit liver
T1 sequence (P68105 1-462): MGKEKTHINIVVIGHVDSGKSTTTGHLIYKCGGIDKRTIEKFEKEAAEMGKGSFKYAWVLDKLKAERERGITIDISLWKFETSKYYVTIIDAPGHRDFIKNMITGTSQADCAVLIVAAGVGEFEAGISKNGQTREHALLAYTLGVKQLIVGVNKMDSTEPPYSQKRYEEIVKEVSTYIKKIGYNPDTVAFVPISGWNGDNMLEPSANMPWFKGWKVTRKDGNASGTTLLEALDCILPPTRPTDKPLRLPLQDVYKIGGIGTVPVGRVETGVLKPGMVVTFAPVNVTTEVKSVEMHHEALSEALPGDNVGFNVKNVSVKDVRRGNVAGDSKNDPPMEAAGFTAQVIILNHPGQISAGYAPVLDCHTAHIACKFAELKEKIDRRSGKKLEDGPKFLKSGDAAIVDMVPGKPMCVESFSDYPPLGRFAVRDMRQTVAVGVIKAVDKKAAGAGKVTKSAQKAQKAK
As to the kind of experiment: Guanine nucleotide exchange assay on eEF1A (eEF1A-[3H]GDP dissociation). It counts as biochemical, rabbit. As for the experimental part: (§1) Guanine nucleotide exchange assay. Rabbit liver eEF1A was purified as described in Shalak et al., Ukr Biokhim Zh, 69: 104-9 (1997), incorporated herein by reference. The guanine nucleotide exchange on eEF1A was monitored as described in Negrutskii et al., J Biol Chem, 274: 4545-50 (1999) and Bec et al., J Biol Chem, 269: 2086-92 (1994), both of which are incorporated herein by reference. The eEF1A-[^3H]GDP complex was prepared following incubation of 4 μM eEF1A with 4 μM [^3H]GDP (Amersham Biosciences; 1500 Ci/mol) in 80 μl of 45 mM Tris-HCl (pH 7.5) containing 0.5 mM DTT, 10 mM magnesium acetate, 100 mM NH4Cl, 1 mg/ml bovine serum albumin and 25% glycerol for 5 minutes at 37° C. The reaction mixture was placed on ice and diluted by addition of 640 μl of ice-cold exchange buffer [20 mM Tris-HCl (pH 7.5), 10 mM magnesium acetate, 50 mM NH4Cl, 10% glycerol]. The exchange reaction was conducted at 0° C. after addition of 160 μl of exchange buffer containing nucleotide and specified exchange factors. Aliquots of 100 μl were taken at times indicated and immediately filtered through nitrocellulose filters (Millipore; pore size 0.45 μm). Filters were washed 3 times with 1 ml of ice-cold washing buffer [20 mM Tris-HCl (pH 7.5), 10 mM magnesium acetate, 100 mM NH4Cl, 0.1 mg/ml bovine serum albumin], dried and counted in a liquid scintillator.
The functional relevance of a TCTP and eEF1A association was further investigated by monitoring the effects of TCTP on the rate of dissociation of GDP from the eEF1A-[^3H]-GDP complex. Whether TCTP preferentially binds to the GDP-bound form of the factor (and pushes the equilibrium toward the formation of eEF1A-GDP) or associates with the nucleotide free form of eEF1A (and displaces the exchange reaction toward the formation of eEF1A) was determined.
This corresponded to a rate of 0.082±0.004 pmol GDP exchanged/min/pmol of eEF1A. In the absence of free GDP in the incubation mixture, the eEF1A-[^3H]-GDP complex remained stable over a period of 40 minutes. Increasing amounts of TCTP (0.2 μM to 3.0 μM) were added in the exchange assay and the rate of dissociation of the eEF1A-[^3H]-GDP complex was monitored in the presence of 150 μM free GDP (FIG. 15A).

For data set [4], the target named is T2, eEF1A (eEF1Bαγ-mediated GDP exchange) (Oryctolagus cuniculus, UniProt P68105).
T2 construct: Rabbit liver eEF1A was purified as described in Shalak et al; from tissue; host or cells: rabbit liver (eEF1A only)
T2 sequence (P68105 2-462 limits assumed): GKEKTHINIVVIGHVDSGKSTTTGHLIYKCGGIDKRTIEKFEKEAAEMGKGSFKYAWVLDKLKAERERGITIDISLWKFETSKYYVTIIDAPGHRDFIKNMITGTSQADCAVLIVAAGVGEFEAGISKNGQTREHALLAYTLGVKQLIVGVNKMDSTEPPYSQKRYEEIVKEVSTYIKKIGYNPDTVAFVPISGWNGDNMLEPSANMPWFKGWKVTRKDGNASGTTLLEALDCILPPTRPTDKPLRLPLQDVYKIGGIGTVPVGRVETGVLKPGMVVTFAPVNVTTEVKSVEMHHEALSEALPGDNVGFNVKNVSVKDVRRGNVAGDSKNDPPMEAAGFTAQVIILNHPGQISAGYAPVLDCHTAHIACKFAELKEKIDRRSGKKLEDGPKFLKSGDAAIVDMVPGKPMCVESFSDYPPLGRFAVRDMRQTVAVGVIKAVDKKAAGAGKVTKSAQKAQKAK
As to the kind of experiment: eEF1Bαγ-mediated GDP exchange on eEF1A. It counts as biochemical, rabbit. Particulars: TCTP at a final concentration of 2 μM. As for the experimental part: as §1, with “scintillator. […]” for “scintillator.”

In data set [5] the target is T3, eEF1A (eEF1Bβ-mediated GDP exchange) (Oryctolagus cuniculus, UniProt P68105).
T3 construct: Rabbit liver eEF1A was purified as described in Shalak et al; Full-length TCTP, eEF1Bβ and NKTR cDNAs were cloned in-frame into pGEX-6P; GST (N, cleaved yes); made in house; host or cells: eEF1Bβ: E. coli BL21DE3; eEF1A: purified from rabbit liver
T3 sequence (P68105 2-462 limits assumed): T2 sequence (P68105 2-462 limits assumed)
As to the kind of experiment: eEF1Bβ-mediated GDP exchange on eEF1A. It counts as biochemical, rabbit. Particulars: TCTP at a final concentration of 2 μM; simple first-order. As for the experimental part:
as §1, with “scintillator. […]” for “scintillator.”

Read-outs that look alike come from different tables or passages of the source.

Chain of Arf1-GAP / [D17]ARF1 (P84077 18-181 limits assumed): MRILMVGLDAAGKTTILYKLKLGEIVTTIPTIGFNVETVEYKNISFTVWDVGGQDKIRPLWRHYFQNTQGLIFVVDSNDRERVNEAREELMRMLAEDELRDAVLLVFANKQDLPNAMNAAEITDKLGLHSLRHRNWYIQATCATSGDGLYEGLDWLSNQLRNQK

As to “TCTP: purified recombinant TCTP protein, bacterially expressed, GST moiety removed”, the “GTP-GDP exchange catalyzed by Arf1-GAP” value in data set [1] is listed as “inhibits”. Further, the “polymerization of purified tubulin” value in data set [2] is given as “did not appear to affect the polymerization rate”. In addition, the “guanine nucleotide exchange activity” value in data set [3] is given as “devoid of exchange activity”. The “rate of GDP dissociation” value in data set [3] (3 μM TCTP, 150 μM free GDP) is listed as 0.026±0.003 pmol GDP exchanged/min/pmol of eEF1A; in data set [3] (with TCTP, unlabeled free GTP (150 μM) instead of GDP), 0.024±0.003 pmol GDP exchanged/min/pmol of eEF1A. Further, the Kd came to 1200 ± 200 nM in data set [3] (150 μM free GDP, TCTP 0.2 μM to 3.0 μM, saturation kinetics, read-out: apparent dissociation constant Kd (inhibition of GDP exchange on eEF1A)) and 1600 ± 300 nM in data set [3] (unlabeled free GTP (150 μM) in the exchange reaction, read-out: apparent Kd of TCTP for the GDP form of eEF1A). Further, the “binding of nucleotides by the protein itself” value in data set [3] (TCTP by itself) was “did not bind nucleotides”. In addition, the “initial rate of GDP exchange in the presence of eEF1Bαγ” value in data set [4] is 0.96 min⁻¹. The “initial rate of GDP exchange in the presence of eEF1Bβ” value in data set [5] is on record as 0.294 min^−1 per pmol of eEF1Bβ.
